Reference: publication PMC10959120

What was measured:
RAB-GDI1 = RAB-GDI1 (UniProt P31150); test: GFP-Trap co-IP, immunoblot; details: reference: wild type; sites T86
[1] = target: MADD (DENN/MADD, RAB3-GEP) (UniProt Q8WXG6); test: GFP-Trap co-IP, HA immunoblot; details: reference: wild type; sites T86

binding against the reference (RAB-GDI1): stronger
binding against the reference [1]: stronger
Substance: RAB3A (from UniProt P20336) T86A
